{"source": "paper PMC10288592", "target": "PYCO1(452 to 592) (Phaeodactylum tricornutum)", "test": "cryo-EM structure; single particle cryo-EM of the Rubisco–PYCO1(452 to 592) complex", "data": [{"substance": "PYCO1(452 to 592) (domain or fragment)", "values": [{"measurement": "stoichiometry N", "result": 4}]}]}
